Target: T1, Kv2.2 (UniProt Q92953 1-911, limits assumed)
T1 sequence (looked up): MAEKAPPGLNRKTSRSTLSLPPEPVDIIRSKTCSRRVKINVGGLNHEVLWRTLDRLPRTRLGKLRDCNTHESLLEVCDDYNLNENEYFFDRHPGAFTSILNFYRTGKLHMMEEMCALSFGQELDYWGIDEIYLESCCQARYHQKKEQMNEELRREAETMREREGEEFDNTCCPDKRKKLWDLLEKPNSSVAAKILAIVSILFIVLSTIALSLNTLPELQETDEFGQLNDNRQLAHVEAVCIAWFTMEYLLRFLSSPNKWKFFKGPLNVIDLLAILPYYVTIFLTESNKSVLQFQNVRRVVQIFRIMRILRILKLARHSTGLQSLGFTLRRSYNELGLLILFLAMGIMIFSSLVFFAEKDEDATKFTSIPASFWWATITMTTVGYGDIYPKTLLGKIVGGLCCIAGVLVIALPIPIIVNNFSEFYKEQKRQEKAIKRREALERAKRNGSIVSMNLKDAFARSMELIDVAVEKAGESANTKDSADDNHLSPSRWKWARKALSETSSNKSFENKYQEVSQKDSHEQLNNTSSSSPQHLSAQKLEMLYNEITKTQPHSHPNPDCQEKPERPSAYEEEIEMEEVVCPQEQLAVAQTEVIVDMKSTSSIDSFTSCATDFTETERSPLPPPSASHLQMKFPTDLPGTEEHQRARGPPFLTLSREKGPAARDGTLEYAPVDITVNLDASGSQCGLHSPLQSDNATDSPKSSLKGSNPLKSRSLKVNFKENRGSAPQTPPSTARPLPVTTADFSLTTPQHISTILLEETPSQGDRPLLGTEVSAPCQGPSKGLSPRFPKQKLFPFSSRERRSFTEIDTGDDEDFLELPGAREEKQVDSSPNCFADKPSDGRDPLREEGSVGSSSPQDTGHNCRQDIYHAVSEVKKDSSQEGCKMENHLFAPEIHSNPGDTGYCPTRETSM
Assay: cell-based or functional assay

B1: human Kv10.1 (other)
chain: MLKQSERRRSWSYRPWNTTENEGSQHRRSICSLGARSGSQASIHGWTEGNYNYYIEEDEDGEEEDQWKDDLAEEDQQAGEVTTAKPEGPSDPPALLSTLNVNVGGHSYQLDYCELAGFPKTRLGRLATSTSRSRQLSLCDDYEEQTDEYFFDRDPAVFQLVYNFYLSGVLLVLDGLCPRRFLEELGYWGVRLKYTPRCCRICFEERRDELSERLKIQHELRAQAQVEEAEELFRDMRFYGPQRRRLWNLMEKPFSSVAAKAIGVASSTFVLVSVVALALNTVEEMQQHSGQGEGGPDLRPILEHVEMLCMGFFTLEYLLRLASTPDLRRFARSALNLVDLVAILPLYLQLLLECFTGEGHQRGQTVGSVGKVGQVLRVMRLMRIFRILKLARHSTGLRAFGFTLRQCYQQVGCLLLFIAMGIFTFSAAVYSVEHDVPSTNFTTIPHSWWWAAVSISTVGYGDMYPETHLGRFFAFLCIAFGIILNGMPISILYNKFSDYYSKLKAYEYTTIRRERGEVNFMQRARKKIAECLLGSNPQLTPRQEN
With B1 the “rate of activation at 0 mV” value was about 2 fold.
